Key:
[1] = target: T1, biotinylated B7-H3 (B7-H3b), immune checkpoint protein; experiment: SPR, biotinylated B7-H3 on NeutrAvidin chip, peptide as analyte
T1 sequence (Q5ZPR3 whole entry, species assumed, looked up): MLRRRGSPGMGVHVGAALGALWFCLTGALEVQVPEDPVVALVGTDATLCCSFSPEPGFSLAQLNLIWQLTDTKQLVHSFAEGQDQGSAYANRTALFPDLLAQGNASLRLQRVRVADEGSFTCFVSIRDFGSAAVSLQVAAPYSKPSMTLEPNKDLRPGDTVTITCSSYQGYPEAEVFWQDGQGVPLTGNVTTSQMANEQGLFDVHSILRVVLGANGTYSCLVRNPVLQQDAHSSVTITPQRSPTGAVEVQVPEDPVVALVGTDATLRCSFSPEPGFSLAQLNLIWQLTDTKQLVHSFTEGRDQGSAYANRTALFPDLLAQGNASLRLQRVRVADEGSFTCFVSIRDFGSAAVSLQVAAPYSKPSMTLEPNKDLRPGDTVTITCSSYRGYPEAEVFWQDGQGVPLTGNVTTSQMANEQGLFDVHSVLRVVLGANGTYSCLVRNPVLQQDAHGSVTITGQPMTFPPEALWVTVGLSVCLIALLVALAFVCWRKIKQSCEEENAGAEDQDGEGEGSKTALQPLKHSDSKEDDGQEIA

[2] = target: T1, biotinylated B7-H3 (B7-H3b), immune checkpoint protein; experiment: SPR (BIACORE 8K, single-cycle kinetics, 1:1 fit); biotinylated B7-H3 on a NeutrAvidin chip, peptide as analyte at 7.5-120 nM

Kd [1]: 46.9 nM
koff [2]: 0.0448 s⁻¹
kon [2]: 955000 M⁻¹ s⁻¹
B1: Met9Nle variant of B1.1 (methionine to norleucine variant of the selected cyclic, disulfide peptide) (peptide)
peptide: WALQLCHSXFYTCKSG
modifications: norleucine (Nle) at position 9; N-terminal acetylation (ac); lactam bridge Q4-K14; disulfide bond C6-C13

Source: patent publication US20260191974A1, “B7-H3 TARGETING LIGANDS AND METHODS OF USE” (The University of North Carolina at Chapel Hill, priority 2022, published 2026)
